Test [1] addresses 增强型荧光蛋白eGFP (eGFP的A206K突变体, mEGFP). As to the kind of experiment: bead capture from 1 mL eGFP IVTT liquid, beads in excess, 1 h; fluorescence (RFU) of IVTT supernatant against flow-through.
Test [2] has the same target. As to the kind of experiment: bead capture from 2 mL eGFP IVTT liquid, eGFP in excess, 1 h; fluorescence (RFU) of Total against Flow-through.

B1: antiEGFP-mScarlet-Tamvavidin2融合蛋白 (VHH, part only; not given: mScarlet and Tamavidin2 parts, not shown: large carriers)
chain, part: MAQVQLVESGGALVQPGGSLRLSCAASGFPVNRYSMRWYRQAPGKEREWVAGMSSAGDRSSYEDSVKGRFTISRDDARNTVYLQMNSLKPEDTAVYYCNVNVGFEYWGQGTQVTVSS
On to B1, for which the 结合效率 in test [1] was 98.2%. In test [2], the 载量 (每毫升antiEGFP磁珠结合的eGFP蛋白的质量) stood at 17.7 mg/mL.

These data come from patent publication CN113564213A.
